Target: T1, BMP-2 (Homo sapiens, UniProt P12643)
T1 sequence (P12643 283-396): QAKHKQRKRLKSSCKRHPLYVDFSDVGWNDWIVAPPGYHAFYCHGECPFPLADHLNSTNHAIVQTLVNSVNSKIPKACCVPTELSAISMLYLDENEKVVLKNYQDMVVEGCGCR
Assay: Inhibition of BMP-2 effects by SPP-24
Conditions: 50-fold (w/w) excess of SPP-24
Text: Lyophilized SPP-24 is ground into a fine powder and combined with DBM. […] However, concentrations of growth factors in DBM vary by lot and preparation methodology. For example, Wildemann et al. reports BMP-2 concentrations of 0.004 g BMP-2 per gram total protein. Wildemann et al. (2007) Quantification of various growth factors in different demineralized bone matrix preparations. J. of Biomed. Mat. Res. Part A. 81A(2): 437-442. Thus, SPP to DBM ratios range from about 1:10 to about 2:1, for example, about 1:10, about 1:8, about 1:7, about 1:6, about 1:5, about 1:4, about 1:3, about 1:2, about 1:1, and about 2:1.

B1: secreted phosphoprotein 24 (protein, UniProt Q13103 30-211, looked up)
Secreted phosphoprotein 24: FPVYDYDPSSLRDALSASVVKVNSQSLSPYLFRAFRSSLKRVEVLDENNLVMNLEFSIRETTCRKDSGEDPATCAFQRDYYVSTAVCRSTVKVSAQQVQGVHARCSWSSSTSESYSSEEMIFGDMLGSHKWRNNYLFGLISDESISEQFYDRSLGIMRRVLPPGNRRYPNHRHRARINTDFE
notes: BMP-2 antagonist
effects of BMP-2: completely ablates
